Test results taken from patent US12648985B2, “Immunotherapeutic for prostate cancer treatment” (Hexamer Therapeutics, Inc., priority 2019, dated 2026).
“Also recorded” adds a separate entry of the source.

B1: construct 2: GnRH peptide immunogen (SEQ ID NO: 70) conjugated to the TCE3-Hex-TCE4 hexamer scaffold peptide (SEQ ID NO: 68) (conjugate)
chain 1: QHWSYGLRPGDGEGC
chain 2: GQEAFSHIRIPLPHDIRSIGKEIRSIGREIRSIGKEIRSIGREFQDAYNAAGGHNAVF
modifications: conjugated; GnRH; TCE3_Hex_TCE4
B2: construct 5: scaffold peptide (SEQ ID NO: 67): GnRH peptide and TCE2 at N- and C-terminus of the monomeric peptide, self-assembled (peptide)
chain: GQHWSYGLRPGGDIRSIGKEIRSIGREIKSIGREIRSIGRGPGPFNNFTVSFWLRVPRVSASHLEQY
modifications: also: self-assembled

What was measured:
GnRH = assay: anti-GnRH IgG endpoint titers by ELISA in sera of immunized mice; type: in vivo; settings: BALB/cJ mice
Description: B-cell function: Standard ELISA was used to measure therapeutic efficacy by GnRH-specific antibody titer in the collected mouse sera. ELISA plates were coated with GnRH-BSA conjugate and 8 sequential 10-fold dilutions (from 1:10^3 to 1:10^10) of sera in blocking buffer were made and added to the ELISA plate wells. An HRP-labeled anti-mouse secondary antibody was added and the plates developed with a colorimetric substrate and measured in an ELISA plate reader. Data were plotted, curve fitted, and statistically analyzed using Prism Graph Pad software for calculating mid- and end-point titers.
(§1) Constructs 1-7 (1 and 10 ug) were adjuvanted with a monophosphoryl lipid-A/squalene-based adjuvant and injected into BALB/cJ mice. Each construct is injected into 5 mice (n=5 per construct). After 14, 28, and 42 days, mouse sera were obtained to measure anti-GnRH IgG endpoint titers by ELISA using dilutions from […] (sequential 10-fold dilutions). […] Testosterone was extracted from the sera, derivatized, and separated and quantified by LC-MS/MS.
The solid line in the group of dots is the geometric mean and the error bars are the geometric standard deviation. Two doses were chosen for this study: 1 and 10 ug. IgG titers reached maximum levels 42 days following prime immunization.

testosterone = assay: serum testosterone by LC-MS/MS in immunized mice; type: in vivo; settings: BALB/cJ mice
Description: as §1
A castrate T level is shown by the dotted line.

| Molecule | anti-GnRH IgG antibody titers, 1 ug versus 10 ug dose (GnRH; 1 and 10 ug, monophosphoryl lipid-A/squalene-based adjuvant, FIG. 3) | anti-GnRH IgG antibody titers, rank among the constructs (GnRH; FIG. 3, listed as TCE3-Hex-TCE4+GnRH) | inducing IgG titers compared with KLH+GnRH (positive control) (GnRH; FIGS. 4-6) | anti-GnRH IgG titers, d28 versus d42 (GnRH; days post-prime immunization, FIG. 3) | inducing castrate levels of T compared with KLH+GnRH (positive control) (testosterone; FIGS. 4-6) | testosterone (T) levels induced (testosterone; by d42, FIG. 6) | anti-GnRH IgG antibody titers, rank among the constructs (GnRH; FIG. 3) |
| --- | --- | --- | --- | --- | --- | --- | --- |
| B1 | equal antibody titers at both 1 and 10 ug | highest antibody titers; also recorded: highest titers or induced high titers sooner | about the same as KLH+GnRH | almost equal levels between d28 and d42 | about the same as KLH+GnRH | castrate levels of T |  |
| B2 |  |  |  |  |  |  | highest titers or induced high titers sooner |
